Substrate: CC(=O)N[C@H]1[C@H](O[C@H]2[C@H](O)[C@@H](NC(C)=O)[C@@H](OP(=O)(O)OP(=O)(O)OCCC(C)CCCC(C)CCCC(C)CCCC(C)C)O[C@@H]2CO)O[C@H](CO)[C@@H](O[C@@H]2O[C@H](CO[C@H]3O[C@H](CO)[C@@H](O)[C@H](O)[C@@H]3O)[C@@H](O)[C@H](O)[C@@H]2O)[C@@H]1O
Assay: UPLC-MS mannosyltransferase assay, nonlinear regression
Assay type: biochemical, Homo sapiens
Details: 2 mM GDP-Man, 10 mM MgCl2, pH 6.0, 0.05% NP-40, 37 °C, 10 min, substrate range 8-200 μM, substrate not further purified

B1: hAlg2 (Trx-hAlg2) (Homo sapiens) (protein)
chain: MAEEQGRERDSVPKPSVLFLHPDLGVGGAERLVLDAALALQARGCSVKIWTAHYDPGHCFAESRELPVRCAGDWLPRGLGWGGRGAAVCAYVRMVFLALYVLFLADEEFDVVVCDQVSACIPVFRLARRRKKILFYCHFPDLLLTKRDSFLKRLYRAPIDWIEEYTTGMADCILVNSQFTAAVFKETFKSLSHIDPDVLYPSLNVTSFDSVVPEKLDDLVPKGKKFLLLSINRYERKKNLTLALEALVQLRGRLTSQDWERVHLIVAGGYDERVLENVEHYQELKKMVQQSDLGQYVTFLRSFSDKQKISLLHSCTCVLYTPSNEHFGIVPLEAMYMQCPVIAVNSGGPLESIDHSVTGFLCEPDPVHFSEAIEKFIREPSLKATMGLAGRARVKEKFSPEAFTEQLYRYVTKLLV
notes: N-terminal His6-Trx tag kept (pET32), expressed in E. coli Rosetta (DE3), HisTrap purified; about 57 kDa on SDS-PAGE
Km: 136.7 ± 30.4 µM | kcat: 1.05 ± 0.13 s⁻¹

Source: article PMC8827073, “Topological and enzymatic analysis of human Alg2 mannosyltransferase reveals its role in lipid-linked oligosaccharide biosynthetic pathway” (Communications Biology, 2022)
